For assay [1], the target named is T1, Recombinant marmoset IL-1β (marmoset, UniProt U3E018 117-268). The assay is described as follows: cell-based or functional assay.
Assay [2] deals with T2, Recombinant marmoset IL-18 (marmoset, UniProt U3CWC9 37-190).
T2 construct: also called marIL-18
T2 sequence: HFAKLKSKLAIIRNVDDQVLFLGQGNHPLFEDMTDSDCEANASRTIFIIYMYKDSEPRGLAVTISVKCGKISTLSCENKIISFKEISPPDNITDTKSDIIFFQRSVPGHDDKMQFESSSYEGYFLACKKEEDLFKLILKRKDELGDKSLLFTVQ
Kind of assay: SET simultaneous target binding, Assay B (both targets in serial dilutions in one mix), ECL read-out.

Assay [3] concerns the target T3, Recombinant human IL-18 (human, UniProt Q14116 37-193).
T3 construct: A biotinylated form (BTP25828) was coated on the read-out plate in the SET assay; The titrated antigen in solution is huIL-18; also called huIL-18
Described as above.

The target in assay [4] is T4, Recombinant human IL-1β (human, UniProt P01584 117-269).
T4 construct: also called huIL-1β
The assay is described as above.

For assay [5], the target named is T1, Recombinant marmoset IL-1β. Described as above.

B1: mAb2 (antibody, human IgG1, kappa, V domains shown)
VH: QVQLVESGGGVVQPGRSLRLSCAASGFTFSVYGMNWVRQAPGKGLEWVAIIWYDGDNQYYADSVKGRFTISRDNSKNTLYLQMNGLRAEDTAVYYCARDLRTGPFDYWGQGTLVTVSS
VL: EIVLTQSPDFQSVTPKEKVTITCRASQSIGSSLHWYQQKPDQSPKLLIKYASQSFSGVPSRFSGSGSGTDFTLTINSLEAEDAAAYYCHQSSSLPFTFGPGTKVDIKR
notes: Human monospecific bivalent IgG1 with kappa light chain (Vkappa6); also called IL-1β antibody; anti IL-1β IgG1
In the case of B1, in assay [1], the “IL-6 prod. in dermal fibroblasts stimulated with recombinant marmoset IL-1β (18 pM), IC50, Exp. A (marmoset dermal fibroblasts by the column head)” value came to 95 pM; the “IL-6 prod. in dermal fibroblasts stimulated with recombinant marmoset IL-1β (18 pM), IC50, Exp. B (marmoset or human fibroblasts: column heads unclear)” value was found to be 0.138 nM; the “IL-6 prod. in dermal fibroblasts stimulated with recombinant marmoset IL-1β (18 pM), IC50, Exp. C (marmoset or human fibroblasts: column heads unclear)” value came to 0.114 nM. The binding result in assay [2] is given as “no binding”. Also, the binding result in assay [3] is “no binding”.

B2: mAb1 (antibody, human IgG1, lambda, L234A L235A, V domains shown)
VH: EVQLVQSGAEVKKPGSSVKVSCKASGGTFKSYAISWVRQAPGQGLEWMGNIIPMTGQTYYAQKFQGRVTITADESTSTAYMELSSLRSEDTAVYYCARAAYHPLVFDNWGQGTLVTVSS
VL: DIVLTQPPSVSGAPGQRVTISCSGSSSNIGNHYVNWYQQLPGTAPKLLIYRNNHRPSGVPDRFSGSKSGTSASLAITGLQSEDEADYYCQSWDYSGFSTVFGGGTKLTVLG
notes: Human monospecific bivalent IgG1 with lambda light chain (Vlambda1); also called IL-18 antibody; anti-IL18 IgG1
In the case of B2, the binding result in assay [4] and in assay [5] was “no binding” in each case.

The values are drawn from US20200308309A1 (Novartis, published 2020).
